Paper PMC9537296, “A novel glucagon analog with an extended half-life, HM15136, normalizes glucose levels in rodent models of congenital hyperinsulinism” (Scientific Reports, 2022)

What was measured:
FcRn = FcRn (UniProt P55899); assay: SPR; association with FcRn at pH 6.0, dissociation at pH 7.4
[1] = molecular target: human glucagon receptor (human) (UniProt P47871)
FcγRIA = FcγRIA (UniProt P12314); assay: SPR; BIACORE T200, 25 °C; FcγRs immobilised by amine coupling on CM5 chips; test materials flowed over (HMC001 and I.V.-Globulin SN 31.25-500 nM, HM15136 30.38-486 nM); steady-state affinity fit
Chain of FcγRIA (P12314 16-292): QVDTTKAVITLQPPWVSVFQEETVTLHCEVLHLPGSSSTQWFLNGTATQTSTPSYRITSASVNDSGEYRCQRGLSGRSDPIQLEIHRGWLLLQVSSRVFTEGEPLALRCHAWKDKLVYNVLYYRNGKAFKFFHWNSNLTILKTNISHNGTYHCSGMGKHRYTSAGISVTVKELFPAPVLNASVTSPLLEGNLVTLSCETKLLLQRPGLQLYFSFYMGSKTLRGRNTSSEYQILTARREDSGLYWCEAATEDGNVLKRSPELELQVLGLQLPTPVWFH

FcγRIIA = FcγRIIA (UniProt P12318); assay: as above
Chain of FcγRIIA (P12318 34-217): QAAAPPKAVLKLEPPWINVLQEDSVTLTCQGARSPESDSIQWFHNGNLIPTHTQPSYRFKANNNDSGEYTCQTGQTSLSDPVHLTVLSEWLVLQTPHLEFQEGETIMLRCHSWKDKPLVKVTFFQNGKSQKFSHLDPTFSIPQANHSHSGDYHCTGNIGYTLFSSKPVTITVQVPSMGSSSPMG

FcγRIIIB = FcγRIIIB (UniProt O75015); assay: as above
Chain of FcγRIIIB (O75015 17-200): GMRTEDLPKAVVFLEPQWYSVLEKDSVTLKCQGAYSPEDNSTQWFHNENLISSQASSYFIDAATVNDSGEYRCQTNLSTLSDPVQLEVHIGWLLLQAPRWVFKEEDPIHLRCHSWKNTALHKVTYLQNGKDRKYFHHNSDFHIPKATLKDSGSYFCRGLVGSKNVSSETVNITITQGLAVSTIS

FcγRIIIA = FcγRIIIA (UniProt P08637); assay: as above
Chain of FcγRIIIA (P08637 17-208): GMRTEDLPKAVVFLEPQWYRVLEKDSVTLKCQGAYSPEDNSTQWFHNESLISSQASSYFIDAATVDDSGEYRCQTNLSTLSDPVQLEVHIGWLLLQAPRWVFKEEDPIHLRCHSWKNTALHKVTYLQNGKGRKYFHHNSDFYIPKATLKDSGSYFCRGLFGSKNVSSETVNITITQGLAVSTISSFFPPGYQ

Chain of FcRn (P55899 24-365, chain 1 of 2): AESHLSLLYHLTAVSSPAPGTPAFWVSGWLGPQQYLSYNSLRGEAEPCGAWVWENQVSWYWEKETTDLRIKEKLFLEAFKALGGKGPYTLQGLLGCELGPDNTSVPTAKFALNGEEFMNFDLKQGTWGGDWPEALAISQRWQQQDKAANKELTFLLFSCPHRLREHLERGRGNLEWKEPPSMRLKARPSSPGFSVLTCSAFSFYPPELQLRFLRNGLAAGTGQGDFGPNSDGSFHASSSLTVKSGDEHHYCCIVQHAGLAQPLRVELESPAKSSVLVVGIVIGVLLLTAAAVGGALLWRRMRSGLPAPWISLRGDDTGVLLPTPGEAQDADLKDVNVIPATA
Chain of FcRn (P61769 21-119, chain 2 of 2, further chain): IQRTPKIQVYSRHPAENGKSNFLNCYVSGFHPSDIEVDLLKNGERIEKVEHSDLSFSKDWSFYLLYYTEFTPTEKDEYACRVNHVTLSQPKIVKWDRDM

Substance	Ka (FcRn)	EC50 of intracellular cAMP generation in hGCGR/CHO cells (0.0015 to 1555.2 nM HM15136) [1] [nM]	Kd (FcγRIA) [nM]	Kd (FcγRIIA) [nM]	Kd (FcγRIIIB) [nM]	Kd (FcγRIIIA) [nM]
HM15136	420000	0.024	–	–	–	–
IgG1 (=I.V.-Globulin SN) (antibody)	–	–	26.7	184	1590	209
